The results in this text go back to patent US20110293610A1 (published 2011).

For assay [1], the target named is T1, biotinylated B Lymphocyte Stimulator, soluble form (human, UniProt Q9Y275 134-285, biotinylated with NHS-biotin, molar ratio 20:1 biotin:protein).
T1 construct: also called bio-B Lymphocyte Stimulator; free B Lymphocyte Stimulator
In words: phage scFv, receptor binding inhibition on IM9 cells. As to the method:
Fifty-five μl of each appropriate phage supernatant was added to each well and the final volume in each well was 65 μl. Plates were then incubated at room temperature for 30 minutes.
Plates were washed three times in PBST and three times in PBS, tapped dry and 50 μl of streptavidin-Delfia (Wallac) was added to each well at 1:1000 dilution in the Manufacturer's assay buffer. The plates were then incubated at room temperature for 1 hour and washed six times in Delfia wash solution (Wallac). After tapping the plates dry, 100 μl per well of Delfia enhancement solution (Wallac) was added. The plates were gently tapped to encourage micelle formation, incubated at room temperature for 10 minutes, and fluorescence read on a Wallac 1420 workstation at […].

Assay [2] concerns the target T2, B Lymphocyte Stimulator, soluble form (human) (human, UniProt Q9Y275 134-285, biotinylated with NHS-biotin where used as biotinylated B Lymphocyte Stimulator).
T2 construct: Coated on plastic, captured on streptavidin plates, amine-coupled to a CM5 chip or free in solution, depending on the assay; also called BLyS; immobilized B Lymphocyte Stimulator
The assay is described as follows: phage competition ELISA. For orientation: ELISA stands for enzyme-linked immunosorbent assay.

Another assay deals with T3, TNF-alpha (human, UniProt P01375 77-233).
T3 construct: also called TNFα; TNF-α
T3 sequence (P01375 77-233 limits assumed): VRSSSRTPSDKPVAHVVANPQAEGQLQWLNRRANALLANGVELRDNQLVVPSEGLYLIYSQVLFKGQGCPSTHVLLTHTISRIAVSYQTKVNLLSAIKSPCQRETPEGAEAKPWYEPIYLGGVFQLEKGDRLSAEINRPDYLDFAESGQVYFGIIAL
In words: phage ELISA.

Another assay has as its target T4, Fas ligand (human, UniProt P48023 134-281, limits assumed).
T4 sequence (looked up): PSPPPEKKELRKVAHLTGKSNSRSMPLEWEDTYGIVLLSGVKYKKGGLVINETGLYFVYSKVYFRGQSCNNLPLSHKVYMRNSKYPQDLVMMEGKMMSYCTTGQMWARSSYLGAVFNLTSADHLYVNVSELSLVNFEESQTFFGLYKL
The assay is described as follows: phage ELISA.

The next assay deals with T5, TRAIL (human, UniProt P50591 114-281).
T5 construct: also called TNF-related apoptosis inducing ligand
T5 sequence (P50591 114-281 limits assumed): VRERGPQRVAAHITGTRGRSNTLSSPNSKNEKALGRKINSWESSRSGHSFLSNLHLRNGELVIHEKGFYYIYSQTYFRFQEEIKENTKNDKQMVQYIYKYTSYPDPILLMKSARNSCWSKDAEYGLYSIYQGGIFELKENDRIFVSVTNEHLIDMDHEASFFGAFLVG
In words: phage ELISA.

In assay [3] the target is T6, membrane-bound B Lymphocyte Stimulator on U937 plasma membrane preparations (human, UniProt Q9Y275 1-285).
T6 construct: Natural protein in plasma membrane fractions of the human cell line U937 coated on ELISA plates; also called U937 plasma membranes; U937 membranes
The assay is described as follows: phage ELISA.

The target in another assay is T7, TNF-beta (human, UniProt P01374 35-205).
T7 construct: also called TNFβ; Tumour Necrosis Factor-beta
T7 sequence (looked up): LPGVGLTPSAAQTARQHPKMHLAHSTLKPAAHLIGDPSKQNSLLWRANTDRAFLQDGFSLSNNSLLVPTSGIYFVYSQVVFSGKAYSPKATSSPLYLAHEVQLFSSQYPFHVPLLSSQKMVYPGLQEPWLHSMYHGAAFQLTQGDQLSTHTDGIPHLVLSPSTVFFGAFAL
In words: phage ELISA.

B1: I061H01 (scFv)
scFv: QVQLVQSGGGLVKPGGSLRLSCAASGFTFSNAWMSWVRQAPGKGLQWVGRIKSKTDGGTTDYAAPVKGRFTISRDDSKNTLYLQMNSLKTEDTAVYYCTTFNPTYDILTGYYIGGYFQHWGQGTMVTVSSGGGGSGGGGSGGGGSQSVLTQPASVSGSPGQSITISCTGTSSDVGGYNYVSWYQQHPGKAPKLMIYEGSKRPSGVSNRFSGSKSGNTASLTISGLQAEDEADYYCSSYTTRSTRVFGGGTQLTVLG
notes: also called 1061H01
Consider B1, for which the binding result in assay [1] is “binds”.

B2: I018C02 (scFv)
scFv: QVQLQQSGSELKKPGASVIVSCKVSGYSLTKMSMHWVRQSPGEGLEWVGGIDPETRQPVYAQKFQGRVTITKDTSASAAYMELSSLGSEDTALYYCARATYDPLTGYSFDGFDIWGQGTLVTVSSGGGGSGGGGSGGGGSQSVLTQPASVSGSPGQSITISCTGTSSDVGGYNYVSWYQQHPGKAPKLMIYEGSKRPSGVSNRFSGSKSGNTASLTISGLQAEDEADYYCSSYTTRSTRVFGGGTKLTVLG
For the molecule B2, the binding result in assay [1] is recorded as “binds”.

B3: I016F04 (scFv)
scFv: QVQLQQSGSELKKPGASVKVSCKVSGYSLTKMSMHWVRQSPGEGLEWVGGIDPETRQPVYAQKFQGRVTITKDTSASAAYMELSSLGSEDTALYYCARATYDPLTGYSFDGFDIWGQGTLVTVSSGGGGSGGGGSGGGGSQSVLTQPASVSGSPGQSITISCTGTSSDVGGYNYVSWYQQHPGKAPKLMIYEGSKRPSGVSNRFSGSKSGNTASLTISGLQAEDEADYYCSSYTTRSTRVFGGGTKLTVLG
Take B3: the binding result in assay [1] was “binds”.

B4: I029D07 (scFv)
scFv: QVQLQQSGAEVKKPGSSVKVSCKASGYTFTKYTMHWVRQAPGQGPEWMGWINGGSGDTKYSRKFQGRVTITKDTSASAAYMELSSLGSEDTALYYCARATYDPLTGYSFDGFDIWGQGTLVTVSSGGGGSGGGGSGGGGSQSVLTQPASVSGSPGQSITISCTGTSSDVGGYNYVSWYQQHPGKAPKLMIYDVSKRPSGVPDRFSGSKSGNTASLTISGLQAEDEGDYYCSSYAGPSRVFGGGTKVEIKR
As to B4, the binding result in assay [1] is recorded as “binds”.

B5: I051C04 (scFv)
scFv: QVQLQQSGAEVKKPGSSVKVSCRTSGGTFSNYGLSWVRQAPGQGLEWMGGVIPISSTIKYGQKFQDRLTIAADDLTNTTFMELSSLRPEDTAVYYCARAATTSQKHNKYAYYFYGMDVWGQGTMVTVSSGGGGSGGGGSGGGGSAQSALTQPASVSGSPGQSITISCTGTSSDVGGYNYVSWYQQHPGKAPKLMIYEVSNRPSGVSNRFSGSKSGNTASLTISGLQAEDEADYYCSSYTSSSTLVFGGGTKVTVLG
notes: also called 1051C04
Regarding B5, the binding result is listed as “binds” in assay [2]; “no binding” with TNF-alpha; “no binding” in the assay with Fas ligand; “no binding” in the assay with TRAIL; “binds” in assay [3]; “no binding” with TNF-beta.

B6: I007H08 (scFv)
scFv: QVQLQQSGPGLVKPSQILSLTCAISGDSVASNGAAWNWIRQSPSRGLEWLGRTYYRSKWYVDYAVSVKSRITINPDTSKNQFSLQLNSVTPEDTAVYYCARDRYDILTGYYYYGMDVWGQGTMVTVSSGGGGSGGGGSGGGGSQSALTQPASVSGSRGQSITISCTGTTGDVGGYDYVSWYQQHPGKAPKLLIYGNSNRPSGVPDRFSASKSGNTASLTISGLQAEDEADYFCNTYAPPGIIMFGGGTKLTVLG
As to B6, in assay [1], the binding result is “binds”.

B7: I008A11 (scFv)
scFv: QVQLQQSGPGLVKPSQILSLTCAISGDSVASNGAAWNWIRQSPSRGLEWLGRTYYRSKWYVDYAVSVKSRITINPDTSKNQFSLQLNSVTPEDTAVYYCARDRYDILTGYYYYGMDVWGQGTMVTVSSGGGGSGGGGSGGGGSQSALTQPASVSGSRGQSITISCTGTTGDVGGYDYVSWYQQHPGKAPKLLIYGNSNRPSGVPDRFSASKSGNTASLTISGLQAEDEADYFCSTYAPPGIIMFGGGTKLTVLG
Take B7: in assay [1], the binding result was “binds”.

B8: I008C03 (scFv)
scFv: QMQLVRSGGGVVQPGRSLRLSCAASGFTFSSYGMHWVRQAPGKGLEWVSVTYSGGNTNYADSVRGRFTISRDNSKNTLYLQMNSLRAEDTAVYYCAREGSYDILTGYYVGVGRMDVWGKGTLVTVSSGGGGSGGGGSGGGGSSELTQDPAVSVALGQTVRITCQGDSLRSYYTNWFQQKPGQAPLLVVYAKNKRPSGIPDRFSGSSSGNTASLTITGAQAEDEADYYCNSRDSSGNHVVFGGGTKLTVLG
Consider B8, for which, in assay [1], the binding result is given as “binds”.

B9: I031C03 (scFv)
scFv: QMQLVQSGAEVRKPGSSVKVSCKASGGSFSSHVFSWVRQAPGQGLEWVGGITPKFATPNYAQKFQHRVTITADELTRTVFMDLSGLRSEDTAVYYCARGYDSSAFRAFDIWGQGTLVTVSSGGGGSGGGGSGGGGSAQSVLTQPPSVSAAPGQKVTISCSGSSSNIGNNYVSWYQQFPGTAPKLLIYDNNNRPSGVPDRFSGSKSGTSATLGITGLQTGDEADYYCGTWDRSLSVVVFGGGTKVTVLG
Consider B9, for which the binding result in assay [1] was “binds”.

B10: I050B11 (scFv)
scFv: QVQLVQSGVEVKKPGASVKVSCKASGYTFSNHGISWVRQAPGQGLEWVGWISGHDDSTKYAQKFQGRVTMTADTSTSTAYIELRSLKSDDTAVYYCARPFYDTLTSYVFQYFDHWGQGTMVTVSSGGGGSGGGGSGGGGSALETTLTQSPDTLSLSPGERATLSCRASQSVTRGWVAWYQQKPGQAPRLLMYGTSRRATGVPDRFSGSESGTDFTLTISRLEPEDFAVYYCQQYATSPRTFGQGTRLEIKR
Turning to B10, the binding result in assay [2] is given as “binds”; with TNF-alpha it was “no binding”; with Fas ligand, “no binding”; with TRAIL it was “no binding”; in assay [3], “binds”; in the assay with TNF-beta, “no binding”.

B11: I061E07 (scFv)
scFv: QVQLQQSGAEVKKTGASVKVSCKASGYIFADYYVHWVRQAAGQGLEWMGWINPNTGSTKYAQKFQDRVTMTRDTSIKTVYMELRRLRSDDTALYYCARATYDPLTGYSFDGFDIWGKGTMVTVSSGGGGSGGGGSGGGGSQSVLTQPPSASGTPGQRVTISCSGSSSNIGSNTVNWYQRLPGAAPQLLIYNNDQRPSGIPDRFSGSKSGTSGSLVISGLQSEDEADYYCASWDDSLNGRVFGGGTKLTVLG
As to B11, in assay [1], the binding result was “binds”.

B12: I022E02 (scFv)
scFv: QVQLVQSGAEVKKPGASVMVSCKASGYTFSTYAVHWVRQAPGQGLEWMGRINAGNGYTKYSQKFQGRVTITKDTSASAAYMELSSLGSEDTALYYCARATYDPLTGYSFDGLDIWGKGTMVTVSSGGGGSGGGGSGGGGSQSVLTQPASVSGSPGQSITISCTGTSSDVGGYNYVSWYQQHPGKAPKLMIYEGSKRPSGVSNRFSGSKSGNTASLTISGLQAEDEADYYCSSYTTRSTRVFGGGTKLTVLG
Take B12: in assay [1], the binding result was “binds”.

B13: I006D07 (scFv)
scFv: EVQLVESGGGVVQPGGSLRLSCAASGFTVNSYAMHWVRQAPGKGLQWVAVIPYDGSKKYYADSVKGRFTVSRDNSKNTLYLQMNSLRAEDTAVYYCARSHYDILTGLNYWYFDLWGRGTLVTVSSGGGGSGGGGSGGGGSSELTQDPAVSVALGQTVRITCQGDSLRSYYASWYQQKPGQAPVLVIYGKNNRPSGIPDRFSGSSSGNTASLTITGAQAEDEADYYCNSRGSSGNHVVFGGGTKLTVLG
As to B13, the binding result in assay [1] is “binds”.

B14: I028A06 (scFv)
scFv: QVQLVESGGGLIQPGGSLRLSCAASGFSFGSYAMSWIRQAPGKGLEWVSTSTGRGGSTYYADSVKGRFTISRDNAKNSLYLQMNSLRAEDAAVYYCARGGDYDILTGLYYYGMDVWGKGTMVTVSSGGGGSGGGGSGGGGSSYVLTQPPSVSGTPGQRVTISCSGGRSNIGSNTVKWYQQLPGTAPKLLIYGNDQRPSGVPDRFSGSKSGTSASLAITGVQAEDEADYYCQSYDSSLRGSRVFGTGTKVTVLG
For the molecule B14, the binding result in assay [1] is “binds”.

B15: I008C02 (scFv)
scFv: AVQLQESGPGLVKPSETLSLTCSVSGASMTTNKFYWSWIRQPPGKGLEWIGNINYSKSTNYNPSLKSRITISVDTSKNQLSLKLNSVTAADTAVYYCARHVRDYDILTGYYRGHYFDYWGQGTMVTVSSGGGGSGGGGSGGGGSQSVLTQPASVSGSPGQSITISCTGTSSDVGGYNYVSWYQQHPGKAPKLMIYEGSKRPSGVSNRFSGSKSGNTASLTISGLQAEDEADYYCSSYTTRSTRVFGGGTKLTVLG
For the molecule B15, the binding result in assay [1] is “binds”.
